These results are taken from patent publication US20120283136A1, “COMPOSITIONS AND METHODS FOR THE RAPID BIOSYNTHESIS AND IN VIVO SCREENING OF BIOLOGICALLY RELEVANT PEPTIDES” (THE UNIVERSITY OF SOUTHERN CALIFORNIA, priority 2009, published 2012).

The target in series [1] is LF protease (Bacillus anthracis, UniProt P15917). Format: biochemical, B. anthracis strain Sterne.
The conditions of series [2]: Saether et al. (1995); cited from earlier work.
In series [3] the target is trypsin. Conditions: read-out: Ki (affinity for trypsin); cited from earlier work.
Series [4] deals with trypsin (Sus scrofa, UniProt P00761). Nature of the series: Competing trypsin-binding experiments (sequential extraction with limiting trypsin-sepharose). The conditions noted are these: in vitro and in vivo cyclized libraries, trypsin-sepharose under competing conditions (about 20% of beads required for stoichiometric binding), MCoTI-I wt as internal reference.

In general, Ki refers to the equilibrium dissociation constant of an inhibitor or competing ligand from its target.

Entries after “also recorded” stand apart in the source; their conditions may differ. Where no end group is shown, it is not given here.

trypsin (Sus scrofa, UniProt P00761), sequence (P00761 9-231): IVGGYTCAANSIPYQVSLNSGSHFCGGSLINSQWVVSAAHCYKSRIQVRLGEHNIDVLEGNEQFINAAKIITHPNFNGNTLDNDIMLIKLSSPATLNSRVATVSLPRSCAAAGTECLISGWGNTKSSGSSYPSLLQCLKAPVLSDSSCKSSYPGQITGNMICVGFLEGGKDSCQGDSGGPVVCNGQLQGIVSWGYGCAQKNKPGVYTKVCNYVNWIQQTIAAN

For the substance “H-RRKKVYPYPMEGTIA-NH2 [consensus LF substrate peptide made by Fmoc solid-phase synthesis]”, in series [1], the “time for cleavage of the P1-P1′ peptide bond by LF” value is “less than 15 minutes”. With “Kalata B1 (cyclo(GLPVCGETCVGGTCNTPGCTCSWPVCTRN); ends not checked; also: three disulfide bonds (cystine knot), pairing not given here; UniProt P56254 89-117, looked up) [first cyclotide to be discovered, from Oldenlandia affinis]”, in series [2], the oral bioavailability result is given as “orally bioavailable”. Regarding “MCoTI-II (cyclo(SGSDGGVCPKILKKCRRDSDCPGACICRGNGYCG); ends not checked; also: three disulfide bonds (cystine knot), pairing not given here; UniProt P82409 1-34, looked up)”, in series [3], the Ki is approximately 2 pM. “Q7G (CGSGSDGGVCPKILGRCRRDSDCPGACICRGNGY; not fully specified (bridges); ends and bridges not checked)”: the “relative affinity for trypsin versus MCoTI-I wt (elution profile)” value in series [4] is recorded as “lower affinity; also recorded: weaker affinity”.
